From article PMC7172368 (Antiviral Research, 2007)

Molecular target: the molecule itself
Test: native gel or EMSA

B1: recombinant porcine ficolin α with C-terminal V5 and 6 x His tags (natural protein)
chain: not shown
binding result: binds
